Results taken from patent publication US7867500B2, “Cofactor that modulates steroid receptor activities” (The United States of America as represented by the …, priority 2004, dated 2011).

T1: RXR α (Homo sapiens, UniProt P19793)
T1 construct: plus VP16 fused to the indicated full length receptors; expressed in transfected cells; host or cells: CV-1
T1 sequence (P19793 1-462): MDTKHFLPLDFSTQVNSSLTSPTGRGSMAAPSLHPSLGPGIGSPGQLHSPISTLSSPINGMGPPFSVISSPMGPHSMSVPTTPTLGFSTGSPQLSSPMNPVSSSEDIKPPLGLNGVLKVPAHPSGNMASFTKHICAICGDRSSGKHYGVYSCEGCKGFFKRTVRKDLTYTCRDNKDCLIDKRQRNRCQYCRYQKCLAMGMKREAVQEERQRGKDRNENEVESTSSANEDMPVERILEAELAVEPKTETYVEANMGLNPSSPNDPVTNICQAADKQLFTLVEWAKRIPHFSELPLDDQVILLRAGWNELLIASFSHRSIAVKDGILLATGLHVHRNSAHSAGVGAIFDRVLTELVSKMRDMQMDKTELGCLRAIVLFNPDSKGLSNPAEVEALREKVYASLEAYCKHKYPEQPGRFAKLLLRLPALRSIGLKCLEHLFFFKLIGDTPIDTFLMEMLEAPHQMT


Assays:
coll3 promoter = experiment: ChIP assay on the endogenous coll3 promoter in U2OS.rGR cells; assay type: cell-based; conditions: 1 μM Dex, after 20 min of steroid treatment; HA/STAMP
Experimental: FIG. 5C illustrates that STAMP and GR are co-localized on the promoter of an endogenous regulated gene as detected by chromatin immunoprecipitation (ChIP) assays. U2OS.rGR cells were treated with 1 μM Dex and then processed after 0 to 80 min as described in Example 1. The binding of GR and STAMP to the coll3 promoter was determined by the ability of PCR to amplify coll3 promoter sequences in the DNA that had been co-immunoprecipitated by anti-GR and anti-HA (to immobilize HA/STAMP) antibodies, respectively (upper panel). […] Similar results were obtained in two additional experiments.
The basic method of Ma et al. (Ma et al. (2003) Methods Enzymol. 364: […], was used with modifications. Two days before harvest, U2OS.rGR cells were seeded into 150 mm dishes at 3,000,000 cells per dish in phenol-red free medium with 10% charcoal/dextran-stripped fetal bovine serum. Each dish was transfected on the next day with 15 μg HA-STAMP and 60 μl Liopfectamine. On the third day, after brief ligand treatment, formaldehyde (37%) was added directly into the medium to a final concentration of 1% (37° C., 10 min), which was followed by glycine to a final concentration of 0.125 M (room temperature, 5 min with shaking). Cells were washed with (4° C.) cold PBS twice and harvested by scraping into 5 ml of cold (4° C.) PBS with a protease inhibitor cocktail (Roche). […]

RXR α = target: T1, RXR α; experiment: Mammalian two-hybrid assay with VP16 full length receptor: RXRα; assay type: cell-based; conditions: 1 μM 9-cis-retinoic acid
Experimental: FIG. 6C1-3 illustrate the association of STAMP with assorted steroid/nuclear receptors, including glucocorticoid receptors (GRs), progesterone receptors (PRs), androgen receptors (ARs), estrogen receptors (ER α or β), PPARγ2 receptors, thyroid receptor beta (TR), and retinoid (α) receptors (RAR α or RXR α). Triplicate samples of CV-1 cells were transfected (as described for FIG. 6B) with GAL, or GAL fused to TIF2.4 or STAMP834C, plus VP16 fused to the indicated full length receptors and incubated with the appropriate steroid (1 μM Dex, 20 nM R5020, 1 nM R1881, 0.1 μM triiodothyronine, or 1 μM estradiol, roziglitazone, or 9-cis-retinoic acid). The average relative luciferase activities of 2-3 experiments±S.E.M. were then plotted. FIG. 6C1 illustrates the effects of STAMP association upon GR, PR and AR induced expression. FIG. 6C2 illustrates the effects of STAMP association upon ERα, ERβ and PPARγ2 induced expression. FIG. 6C3 illustrates the effects of STAMP association upon TR, RARα and RXRα induced expression.
These assays were conducted as described (He et al., 2002). […]

| interaction with RXR α (RXR α) | Molecule | localization on the coll3 promoter (coll3 promoter) |
| --- | --- | --- |
|  | STAMP: SRC-1 and TIF2 Associated Modulatory Protein, 1277 amino acid human polypeptide, expressed from transfected plasmid (protein) MARDLEETASSSEDEEVISQEDHPCIMWTGGCRRIPVLVFHADAILTKDNNIRVIGERYHLSYKIVRTDSRLVRSILTAHGFHEVHPSSTDYNLMWTGSHLKPFLLRTLSEAQKVNHFPRSYELTRKDRLYKNIIRMQHTHGFKVFHILPQTFLLPAEYAEFCNSYSKDRGPWIVKPVASSRGRGVYLINNPNQISLEENILVSRYINNPLLIDDFKFDVRLYVLVTSYDPLVIYLYEEGLARFATVRYDQGAKNIRNQFMHLTNYSVNKKSGDYVSCDDPEVEDYGNKWSMSAMLRYLKQEGRDTTALMAHVEDLIIKTIISAELAIATACKTFVPHRSSCFELYGFDVLIDSTLKPWLLEVNLSPSLACDAPLDLKIKASMISDMFTVVGFVCQDPAQRASTRPIYPTFESSRRNPFQKPQRCRPLSASDAEMKNLVGSAREKGPGKLGGSVLGLSMEEIKVLRRVKEENDRRGGFIRIFPTSETWEIYGSYLEHKTSMNYMLATRLFQDRMTADGAPELKIESLNSKAKLHAALYERKLLSLEVRKRRRRSSRLRAMRPKYPVITQPAEMNVKTETESEEEEEVALDNEDEEQEASQEESAGFLRENQAKYTPSLTALVENTPKENSMKVREWNNKGGHCCKLETQELEPKFNLMQILQDNGNLSKMQARIAFSAYLQHVQIRLMKDSGGQTFSASWAAKEDEQMELVVRFLKRASNNLQHSLRMVLPSRRLALLERRRILAHQLGDFIIVYNKETEQMAEKKSKKKVEEEEEDGVNMENFQEFIRQASEAELEEVLTFYTQKNKSASVFLGTHSKISKNNNNYSDSGAKGDHPETIMEEVKIKPPKQQQTTEIHSDKLSRFTTSAEKEAKLVYSNSSSGPTATLQKIPNTHLSSVTTSDLSPGPCHHSSLSQIPSAIPSMPHQPTILLNTVSASASPCLHPGAQNIPSPTGLPRCRSGSHTIGPFSSFQSAAHIYSQKLSRPSSAKAGSCYLNKHHSGIAKTQKEGEDASLYSKRYNQSMVTAELQRLAEKQAARQYSPSSHINLLTQQVTNLNLATGIINRSSASAPPTLRPIISPSGPTWSTQSDPQAPENHSSSPGSRSLQTGGFAWEGEVENNVYSQATGVVPQHKYHPTAGSYQLQFALQQLEQQKLQSRQLLDQSRARHQAIFGSQTLPNSNLWTMNNGAGCRISSATASGQKPTTLPQKVVPPPSSCASLVPKPPPNHEQVLRRATSQKASKGSSAEGQLNGLQSSLNPAASVPITSSTDPAHTKI | induced to localize on the coll3 promoter |
| lack of interaction | STAMP834C: STAMP fragment amino acids 834-1277, receptor interaction domain (RID) (protein) GDHPETIMEEVKIKPPKQQQTTEIHSDKLSRFTTSAEKEAKLVYSNSSSGPTATLQKIPNTHLSSVTTSDLSPGPCHHSSLSQIPSAIPSMPHQPTILLNTVSASASPCLHPGAQNIPSPTGLPRCRSGSHTIGPFSSFQSAAHIYSQKLSRPSSAKAGSCYLNKHHSGIAKTQKEGEDASLYSKRYNQSMVTAELQRLAEKQAARQYSPSSHINLLTQQVTNLNLATGIINRSSASAPPTLRPIISPSGPTWSTQSDPQAPENHSSSPGSRSLQTGGFAWEGEVENNVYSQATGVVPQHKYHPTAGSYQLQFALQQLEQQKLQSRQLLDQSRARHQAIFGSQTLPNSNLWTMNNGAGCRISSATASGQKPTTLPQKVVPPPSSCASLVPKPPPNHEQVLRRATSQKASKGSSAEGQLNGLQSSLNPAASVPITSSTDPAHTKI |  |
